US20240383984A1 (Genentech, published 2024)

T1: human FcRH5 protein fragment (soluble) (human, UniProt Q96RD9 16-851)
T1 construct: whole entry named; also called soluble human FcRH5; Human FcRH5 (BIACORE analyte)
T1 sequence: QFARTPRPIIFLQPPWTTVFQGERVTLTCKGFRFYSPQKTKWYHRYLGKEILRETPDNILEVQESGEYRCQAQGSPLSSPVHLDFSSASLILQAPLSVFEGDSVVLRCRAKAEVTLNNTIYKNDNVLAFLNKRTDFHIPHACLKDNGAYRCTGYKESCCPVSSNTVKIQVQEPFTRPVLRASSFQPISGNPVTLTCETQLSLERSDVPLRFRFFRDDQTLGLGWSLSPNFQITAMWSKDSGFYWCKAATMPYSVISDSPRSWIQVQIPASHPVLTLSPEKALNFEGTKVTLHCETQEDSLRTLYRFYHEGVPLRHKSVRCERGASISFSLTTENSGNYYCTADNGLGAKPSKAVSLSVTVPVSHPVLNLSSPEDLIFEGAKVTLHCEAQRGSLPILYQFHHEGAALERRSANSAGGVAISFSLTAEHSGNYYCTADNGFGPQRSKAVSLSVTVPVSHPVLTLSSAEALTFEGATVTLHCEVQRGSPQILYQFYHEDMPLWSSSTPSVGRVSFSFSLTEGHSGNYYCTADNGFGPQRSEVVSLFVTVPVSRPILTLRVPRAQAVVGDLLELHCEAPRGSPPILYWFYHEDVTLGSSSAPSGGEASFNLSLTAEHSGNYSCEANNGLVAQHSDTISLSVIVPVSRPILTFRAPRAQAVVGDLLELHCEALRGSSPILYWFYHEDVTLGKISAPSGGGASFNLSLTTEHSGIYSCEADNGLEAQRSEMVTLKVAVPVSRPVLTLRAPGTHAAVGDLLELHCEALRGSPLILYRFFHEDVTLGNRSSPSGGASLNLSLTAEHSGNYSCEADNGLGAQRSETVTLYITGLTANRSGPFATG

T2: human FcRH4 (full-length, on SVT2 cells) (human, UniProt Q96PJ5 20-515)
T2 construct: whole, on cells; also called SVT2-FcRH4
T2 sequence (looked up): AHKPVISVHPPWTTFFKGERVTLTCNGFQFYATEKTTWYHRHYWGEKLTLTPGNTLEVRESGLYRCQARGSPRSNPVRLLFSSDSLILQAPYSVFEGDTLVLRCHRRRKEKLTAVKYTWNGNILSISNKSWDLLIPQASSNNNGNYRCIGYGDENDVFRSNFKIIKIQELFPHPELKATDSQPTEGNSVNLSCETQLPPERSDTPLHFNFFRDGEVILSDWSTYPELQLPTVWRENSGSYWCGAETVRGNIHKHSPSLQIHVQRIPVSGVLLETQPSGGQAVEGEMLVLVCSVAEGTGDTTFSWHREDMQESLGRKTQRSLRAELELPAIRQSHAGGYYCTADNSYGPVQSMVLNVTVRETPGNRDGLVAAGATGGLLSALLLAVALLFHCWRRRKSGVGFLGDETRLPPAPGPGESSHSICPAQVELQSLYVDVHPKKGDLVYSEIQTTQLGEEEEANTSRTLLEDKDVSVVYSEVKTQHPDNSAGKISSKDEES

T3: human FcRH1 (full-length, on SVT2 cells) (human, UniProt Q96LA6 17-429)
T3 construct: whole, on cells; also called SVT2-FcRH1
T3 sequence (looked up): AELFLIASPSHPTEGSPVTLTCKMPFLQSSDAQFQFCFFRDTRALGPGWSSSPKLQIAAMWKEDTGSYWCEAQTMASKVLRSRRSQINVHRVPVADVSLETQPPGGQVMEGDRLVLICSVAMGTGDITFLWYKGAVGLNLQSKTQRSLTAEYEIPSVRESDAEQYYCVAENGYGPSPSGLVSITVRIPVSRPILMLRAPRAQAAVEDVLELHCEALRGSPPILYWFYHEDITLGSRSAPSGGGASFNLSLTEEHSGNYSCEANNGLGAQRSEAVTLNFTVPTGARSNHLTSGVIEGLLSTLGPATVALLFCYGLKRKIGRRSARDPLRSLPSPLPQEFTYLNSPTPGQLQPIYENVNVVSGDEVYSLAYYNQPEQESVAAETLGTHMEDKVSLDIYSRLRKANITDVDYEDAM

T4: human FcRH2 (full-length, on SVT2 cells) (human, UniProt Q96LA5 20-508)
T4 construct: whole, on cells; also called SVT2-FcRH2
T4 sequence (looked up): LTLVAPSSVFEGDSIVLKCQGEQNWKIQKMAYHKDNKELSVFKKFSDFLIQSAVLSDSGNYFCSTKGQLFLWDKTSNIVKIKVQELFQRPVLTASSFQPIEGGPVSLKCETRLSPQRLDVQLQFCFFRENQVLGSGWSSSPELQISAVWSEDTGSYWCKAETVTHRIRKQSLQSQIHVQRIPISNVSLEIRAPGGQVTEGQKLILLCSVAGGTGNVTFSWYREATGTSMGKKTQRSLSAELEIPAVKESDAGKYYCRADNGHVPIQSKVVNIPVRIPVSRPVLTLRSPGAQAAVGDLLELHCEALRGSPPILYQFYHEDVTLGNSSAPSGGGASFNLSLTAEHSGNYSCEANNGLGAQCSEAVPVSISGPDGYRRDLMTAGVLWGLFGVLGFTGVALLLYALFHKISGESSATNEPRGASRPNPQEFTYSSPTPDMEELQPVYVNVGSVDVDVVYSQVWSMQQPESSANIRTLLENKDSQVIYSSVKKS


Columns and labels:
[1] = biological target: T1, human FcRH5 protein fragment (soluble); assay: BIACORE, TDB format
[2] = biological target: T2, human FcRH4 (full-length, on SVT2 cells); assay: FACS, SVT2 cells
Description: (§1) Human FcRH5, cyno FcRH5, human FcRH1, FcRH2, FcRH3, and FcRH4 transfected mouse SVT2 cells were used to test binding and cross-reactivity of FcRH5 TDBs. The method was carried out as follows. Cultured SVT2 cells were lifted using non-enzyme cell dissociation buffer (Sigma, #C5914). 1×10⁵ cells were suspended in 100 μL and incubated with FcRH5 TDBs at 3 μg/ml. […] Cells were washed twice with FACS buffer before flow cytometry analysis was carried out on a FACSCalibur.

[3] = biological target: T3, human FcRH1 (full-length, on SVT2 cells); assay: FACS, SVT2 cells
Description: as §1

[4] = biological target: T4, human FcRH2 (full-length, on SVT2 cells); assay: FACS, SVT2 cells, 3 µg/ml
Description: as §1

Kd [1] | binding result [2] | binding result [3] | binding result [4] | Binder
1.4 nM | no binding (tested: 3 µg/ml) | no binding (tested: 3 µg/ml) | binds | hu1G7.v1.4/38E4.v1 TDB (bispecific antibody, V domains shown, knob-into-hole TDB; also called 1G7.v1.4 TDB; 1G7.v1.4 (TDB format)) VH 1: EVQLVESGPGLVKPSETLSLTCTVSGFSLTRFGVHWVRQPPGKGLEWLGVIWRGGSTDYNAAFMSRLTISKDNSKNQVSLKLSSVTAADTAVYYCSNHYYGSSDYALDNWGQGTLVTVSS VL 1: DIQMTQSPSSLSASVGDRVTITCKASQDVRNLVVWFQQKPGKAPKLLIYSGSYRYSGVPSRFSGSGSGTDFTLTISSLQPEDFATYYCQQHYSPPYTFGQGTKVEIK VH 2: EVQLVQSGAEVKKPGASVKVSCKASGFTFTSYYIHWVRQAPGQGLEWIGWIYPENDNTKYNEKFKDRVTITADTSTSTAYLELSSLRSEDTAVYYCARDGYSRYYFDYWGQGTLVTVSS VL 2: DIVMTQSPDSLAVSLGERATINCKSSQSLLNSRTRKNYLAWYQQKPGQSPKLLIYWTSTRKSGVPDRFSGSGSGTDFTLTISSLQAEDVAVYYCKQSFILRTFGQGTKVEIK
0.9 nM | no binding (tested: 3 µg/ml) | no binding (tested: 3 µg/ml) | binds | hu1G7.v1.13.1/38E4.v1 TDB (bispecific antibody, V domains shown, knob-into-hole TDB; also called 1G7.v1.13.1 TDB) VH 1: EVQLVESGPGLVKPSETLSLTCTVSGFSLTRFGVHWVRQPPGKGLEWLGVIWRGGSTDYNAAFMSRLTISKDNSKNQVSLKLSSVTAADTAVYYCSNHYYGSSDYALDNWGQGTLVTVSS VL 1: DIQMTQSPSSLSASVGDRVTITCKASQDVRNLVVWFQQKPGKAPKLLIYSGYYRYTGVPSRFSGSGSGTDFTLTISSLQPEDFATYYCQQHYQPPYTFGQGTKVEIK VH 2: EVQLVQSGAEVKKPGASVKVSCKASGFTFTSYYIHWVRQAPGQGLEWIGWIYPENDNTKYNEKFKDRVTITADTSTSTAYLELSSLRSEDTAVYYCARDGYSRYYFDYWGQGTLVTVSS VL 2: DIVMTQSPDSLAVSLGERATINCKSSQSLLNSRTRKNYLAWYQQKPGQSPKLLIYWTSTRKSGVPDRFSGSGSGTDFTLTISSLQAEDVAVYYCKQSFILRTFGQGTKVEIK
2.7 nM | no binding (tested: 3 µg/ml) | no binding (tested: 3 µg/ml) | binds | hu1G7.v1.1/38E4.v1 TDB (bispecific antibody, V domains shown, knob-into-hole TDB; also called 1G7.v1.1 TDB) VH 1: EVQLVESGPGLVKPSETLSLTCTVSGFSLTRFGVHWVRQPPGKGLEWLGVIWRGGSTDYNAAFMSRLTISKDNSKNQVSLKLSSVTAADTAVYYCSNHYYGSSDYALDNWGQGTLVTVSS VL 1: DIQMTQSPSSLSASVGDRVTITCKASQDVRNLVVWFQQKPGKAPKLLIYSGSYRYSGVPSRFSGSGSGTDFTLTISSLQPEDFATYYCQQQYSPPYTFGQGTKVEIK VH 2: EVQLVQSGAEVKKPGASVKVSCKASGFTFTSYYIHWVRQAPGQGLEWIGWIYPENDNTKYNEKFKDRVTITADTSTSTAYLELSSLRSEDTAVYYCARDGYSRYYFDYWGQGTLVTVSS VL 2: DIVMTQSPDSLAVSLGERATINCKSSQSLLNSRTRKNYLAWYQQKPGQSPKLLIYWTSTRKSGVPDRFSGSGSGTDFTLTISSLQAEDVAVYYCKQSFILRTFGQGTKVEIK
2.6 nM | no binding (tested: 3 µg/ml) | no binding (tested: 3 µg/ml) | binds | hu1G7.v1.2/38E4.v1 TDB (bispecific antibody, V domains shown, knob-into-hole TDB; also called 1G7.v1.2 TDB) VH 1: EVQLVESGPGLVKPSETLSLTCTVSGFSLTRFGVHWVRQPPGKGLEWLGVIWRGGSTDYNAAFMSRLTISKDNSKNQVSLKLSSVTAADTAVYYCSNHYYGSSDYALDNWGQGTLVTVSS VL 1: DIQMTQSPSSLSASVGDRVTITCKASQDVRNLVVWFQQKPGKAPKLLIYSGYNRYSGVPSRFSGSGSGTDFTLTISSLQPEDFATYYCQQQFQPPYTFGQGTKVEIK VH 2: EVQLVQSGAEVKKPGASVKVSCKASGFTFTSYYIHWVRQAPGQGLEWIGWIYPENDNTKYNEKFKDRVTITADTSTSTAYLELSSLRSEDTAVYYCARDGYSRYYFDYWGQGTLVTVSS VL 2: DIVMTQSPDSLAVSLGERATINCKSSQSLLNSRTRKNYLAWYQQKPGQSPKLLIYWTSTRKSGVPDRFSGSGSGTDFTLTISSLQAEDVAVYYCKQSFILRTFGQGTKVEIK
1.5 nM | no binding (tested: 3 µg/ml) | no binding (tested: 3 µg/ml) | binds | hu1G7.v1.3/38E4.v1 TDB (bispecific antibody, V domains shown, knob-into-hole TDB; also called 1G7.v1.3 TDB) VH 1: EVQLVESGPGLVKPSETLSLTCTVSGFSLTRFGVHWVRQPPGKGLEWLGVIWRGGSTDYNAAFMSRLTISKDNSKNQVSLKLSSVTAADTAVYYCSNHYYGSSDYALDNWGQGTLVTVSS VL 1: DIQMTQSPSSLSASVGDRVTITCKASQDVRNIVVWFQQKPGKAPKLLIYSGSYRYSGVPSRFSGSGSGTDFTLTISSLQPEDFATYYCQQQYSPPYTFGQGTKVEIK VH 2: EVQLVQSGAEVKKPGASVKVSCKASGFTFTSYYIHWVRQAPGQGLEWIGWIYPENDNTKYNEKFKDRVTITADTSTSTAYLELSSLRSEDTAVYYCARDGYSRYYFDYWGQGTLVTVSS VL 2: DIVMTQSPDSLAVSLGERATINCKSSQSLLNSRTRKNYLAWYQQKPGQSPKLLIYWTSTRKSGVPDRFSGSGSGTDFTLTISSLQAEDVAVYYCKQSFILRTFGQGTKVEIK
1.2 nM | no binding (tested: 3 µg/ml) | no binding (tested: 3 µg/ml) | binds | hu1G7.v1.13/38E4.v1 TDB (bispecific antibody, V domains shown, knob-into-hole TDB; also called 1G7.v1.13 TDB) VH 1: EVQLVESGPGLVKPSETLSLTCTVSGFSLTRFGVHWVRQPPGKGLEWIGVIWRGGSTDYNAAFMSRLTISKDNSKNQVSLKLSSVTAADTAVYYCSNHYYGSSDYALDNWGQGTLVTVSS VL 1: DIQMTQSPSSLSASVGDRVTITCKASQDVRNLVVWFQQKPGKAPKLLIYSGYYRYTGVPSRFSGSGSGTDFTLTISSLQPEDFATYYCQQHYQPPYTFGQGTKVEIK VH 2: EVQLVQSGAEVKKPGASVKVSCKASGFTFTSYYIHWVRQAPGQGLEWIGWIYPENDNTKYNEKFKDRVTITADTSTSTAYLELSSLRSEDTAVYYCARDGYSRYYFDYWGQGTLVTVSS VL 2: DIVMTQSPDSLAVSLGERATINCKSSQSLLNSRTRKNYLAWYQQKPGQSPKLLIYWTSTRKSGVPDRFSGSGSGTDFTLTISSLQAEDVAVYYCKQSFILRTFGQGTKVEIK
